Experimental findings from publication PMC10786891, “Massively parallel profiling of RNA-targeting CRISPR-Cas13d” are described below.

The labels stand for the following.
T1: EsCas13d, nuclease-dead (Eubacterium siraeum, UniProt B0MS50, R295A;H300A;R849A;H854A)
T1 sequence: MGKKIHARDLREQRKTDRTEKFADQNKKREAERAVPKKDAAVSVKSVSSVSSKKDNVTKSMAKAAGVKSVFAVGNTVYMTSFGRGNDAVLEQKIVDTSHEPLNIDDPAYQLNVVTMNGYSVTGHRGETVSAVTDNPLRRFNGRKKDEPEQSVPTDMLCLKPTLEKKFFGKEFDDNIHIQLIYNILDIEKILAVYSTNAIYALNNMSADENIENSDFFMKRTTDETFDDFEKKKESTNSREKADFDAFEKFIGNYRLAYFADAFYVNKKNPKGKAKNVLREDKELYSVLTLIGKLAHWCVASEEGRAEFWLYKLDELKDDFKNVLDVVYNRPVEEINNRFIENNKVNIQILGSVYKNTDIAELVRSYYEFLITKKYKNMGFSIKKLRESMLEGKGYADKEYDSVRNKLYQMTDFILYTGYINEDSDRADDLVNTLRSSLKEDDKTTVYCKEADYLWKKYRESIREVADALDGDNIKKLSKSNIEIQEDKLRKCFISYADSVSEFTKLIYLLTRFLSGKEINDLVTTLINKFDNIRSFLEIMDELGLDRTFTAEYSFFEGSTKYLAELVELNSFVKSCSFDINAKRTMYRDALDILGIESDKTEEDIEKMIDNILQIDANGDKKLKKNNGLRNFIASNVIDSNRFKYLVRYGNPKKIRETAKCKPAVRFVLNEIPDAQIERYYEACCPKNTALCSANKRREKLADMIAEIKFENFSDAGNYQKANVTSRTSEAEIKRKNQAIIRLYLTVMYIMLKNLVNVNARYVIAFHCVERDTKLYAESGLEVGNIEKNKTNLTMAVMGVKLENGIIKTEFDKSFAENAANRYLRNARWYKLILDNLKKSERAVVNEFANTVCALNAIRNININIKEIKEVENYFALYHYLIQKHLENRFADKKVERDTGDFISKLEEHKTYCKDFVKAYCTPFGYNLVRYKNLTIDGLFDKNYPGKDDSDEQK

B1: target 1 insG 3' of 22,insG 3' of 22 (mixed)
RNA 1: CACCCGUGCAAAAAUGCAGGGGUCUAAAACUGAGCGGAUAACCUCUCUAUGG
RNA 2: GGGAAUGGAUCCACAUCUACGAAUUCGUACGGCAUAGAGAGGUUAUCCGCUCACCGAGAUCGGAAGAGCACACGU
B2: target 1 insU 3' of 17,insG 3' of 4 (mixed)
RNA 1: CACCCGUGCAAAAAUGCAGGGGUCUAAAACUGAGCGGAUAACCUCUCUAUGG
RNA 2: GGGAAUGGAUCCACAUCUACGAAUUCGUACCAUAGUAGAGGUUAUCCGCGUCACCGAGAUCGGAAGAGCACACGU
B3: target 1 C2U,G17U (mixed)
RNA 1: CACCCGUGCAAAAAUGCAGGGGUCUAAAACUGAGCGGAUAACCUCUCUAUGG
RNA 2: GGGAAUGGAUCCACAUCUACGAAUUCGUACCAUAUAGAGGUUAUCCGCUUACCGAGAUCGGAAGAGCACACGU
B4: target 1 G15U,A18U (mixed)
RNA 1: CACCCGUGCAAAAAUGCAGGGGUCUAAAACUGAGCGGAUAACCUCUCUAUGG
RNA 2: GGGAAUGGAUCCACAUCUACGAAUUCGUACCAUUGAUAGGUUAUCCGCUCACCGAGAUCGGAAGAGCACACGU
B5: target 1 G15C,G17A (mixed)
RNA 1: CACCCGUGCAAAAAUGCAGGGGUCUAAAACUGAGCGGAUAACCUCUCUAUGG
RNA 2: GGGAAUGGAUCCACAUCUACGAAUUCGUACCAUAAACAGGUUAUCCGCUCACCGAGAUCGGAAGAGCACACGU
B6: target 1 insG 3' of 8,insA 3' of 6 (mixed)
RNA 1: CACCCGUGCAAAAAUGCAGGGGUCUAAAACUGAGCGGAUAACCUCUCUAUGG
RNA 2: GGGAAUGGAUCCACAUCUACGAAUUCGUACCAUAGAGAGGUUAUGCCAGCUCACCGAGAUCGGAAGAGCACACGU
B7: target 1 C4A,G12U (mixed)
RNA 1: CACCCGUGCAAAAAUGCAGGGGUCUAAAACUGAGCGGAUAACCUCUCUAUGG
RNA 2: GGGAAUGGAUCCACAUCUACGAAUUCGUACCAUAGAGAGUUUAUCCGAUCACCGAGAUCGGAAGAGCACACGU
B8: target 1 insU 3' of 21,insA 3' of 15 (mixed)
RNA 1: CACCCGUGCAAAAAUGCAGGGGUCUAAAACUGAGCGGAUAACCUCUCUAUGG
RNA 2: GGGAAUGGAUCCACAUCUACGAAUUCGUACCUAUAGAGAAGGUUAUCCGCUCACCGAGAUCGGAAGAGCACACGU
B9: target 1 insC 3' of 17,insU 3' of 6 (mixed)
RNA 1: CACCCGUGCAAAAAUGCAGGGGUCUAAAACUGAGCGGAUAACCUCUCUAUGG
RNA 2: GGGAAUGGAUCCACAUCUACGAAUUCGUACCAUAGCAGAGGUUAUCCUGCUCACCGAGAUCGGAAGAGCACACGU
B10: target 1 insU 3' of 5,insG 3' of 1 (mixed)
RNA 1: CACCCGUGCAAAAAUGCAGGGGUCUAAAACUGAGCGGAUAACCUCUCUAUGG
RNA 2: GGGAAUGGAUCCACAUCUACGAAUUCGUACCAUAGAGAGGUUAUCCGUCUCAGCCGAGAUCGGAAGAGCACACGU
B11: target 1 C7U (mixed)
RNA 1: CACCCGUGCAAAAAUGCAGGGGUCUAAAACUGAGCGGAUAACCUCUCUAUGG
RNA 2: GGGAAUGGAUCCACAUCUACGAAUUCGUACCAUAGAGAGGUUAUUCGCUCACCGAGAUCGGAAGAGCACACGU
B12: target 1 insA 3' of 22,insC 3' of 20 (mixed)
RNA 1: CACCCGUGCAAAAAUGCAGGGGUCUAAAACUGAGCGGAUAACCUCUCUAUGG
RNA 2: GGGAAUGGAUCCACAUCUACGAAUUCGUACACACUAGAGAGGUUAUCCGCUCACCGAGAUCGGAAGAGCACACGU
B13: target 1 insA 3' of 7,insA 3' of 5 (mixed)
RNA 1: CACCCGUGCAAAAAUGCAGGGGUCUAAAACUGAGCGGAUAACCUCUCUAUGG
RNA 2: GGGAAUGGAUCCACAUCUACGAAUUCGUACCAUAGAGAGGUUAUCACGACUCACCGAGAUCGGAAGAGCACACGU
B14: target 1 del1,del8 (mixed)
RNA 1: CACCCGUGCAAAAAUGCAGGGGUCUAAAACUGAGCGGAUAACCUCUCUAUGG
RNA 2: GGGAAUGGAUCCACAUCUACGAAUUCGUACCAUAGAGAGGUUACCGCUCCCGAGAUCGGAAGAGCACACGU
B15: target 1 insA 3' of 21,insA 3' of 5 (mixed)
RNA 1: CACCCGUGCAAAAAUGCAGGGGUCUAAAACUGAGCGGAUAACCUCUCUAUGG
RNA 2: GGGAAUGGAUCCACAUCUACGAAUUCGUACCAAUAGAGAGGUUAUCCGACUCACCGAGAUCGGAAGAGCACACGU
B16: target 1 C7A,G13U (mixed)
RNA 1: CACCCGUGCAAAAAUGCAGGGGUCUAAAACUGAGCGGAUAACCUCUCUAUGG
RNA 2: GGGAAUGGAUCCACAUCUACGAAUUCGUACCAUAGAGAUGUUAUACGCUCACCGAGAUCGGAAGAGCACACGU
B17: target 1 insC 3' of 18,insA 3' of 2 (mixed)
RNA 1: CACCCGUGCAAAAAUGCAGGGGUCUAAAACUGAGCGGAUAACCUCUCUAUGG
RNA 2: GGGAAUGGAUCCACAUCUACGAAUUCGUACCAUACGAGAGGUUAUCCGCUCAACCGAGAUCGGAAGAGCACACGU
B18: target 1 insA 3' of 22,insC 3' of 18 (mixed)
RNA 1: CACCCGUGCAAAAAUGCAGGGGUCUAAAACUGAGCGGAUAACCUCUCUAUGG
RNA 2: GGGAAUGGAUCCACAUCUACGAAUUCGUACACAUACGAGAGGUUAUCCGCUCACCGAGAUCGGAAGAGCACACGU
B19: target 1 G12U,C22A (mixed)
RNA 1: CACCCGUGCAAAAAUGCAGGGGUCUAAAACUGAGCGGAUAACCUCUCUAUGG
RNA 2: GGGAAUGGAUCCACAUCUACGAAUUCGUAACAUAGAGAGUUUAUCCGCUCACCGAGAUCGGAAGAGCACACGU
B20: target 1 insU 3' of 13,insA 3' of 8 (mixed)
RNA 1: CACCCGUGCAAAAAUGCAGGGGUCUAAAACUGAGCGGAUAACCUCUCUAUGG
RNA 2: GGGAAUGGAUCCACAUCUACGAAUUCGUACCAUAGAGAGUGUUAUACCGCUCACCGAGAUCGGAAGAGCACACGU
B21: target 1 G13A,C21U (mixed)
RNA 1: CACCCGUGCAAAAAUGCAGGGGUCUAAAACUGAGCGGAUAACCUCUCUAUGG
RNA 2: GGGAAUGGAUCCACAUCUACGAAUUCGUACUAUAGAGAAGUUAUCCGCUCACCGAGAUCGGAAGAGCACACGU
B22: target 1 U8A,G15A (mixed)
RNA 1: CACCCGUGCAAAAAUGCAGGGGUCUAAAACUGAGCGGAUAACCUCUCUAUGG
RNA 2: GGGAAUGGAUCCACAUCUACGAAUUCGUACCAUAGAAAGGUUAACCGCUCACCGAGAUCGGAAGAGCACACGU
B23: target 1 C2U,C6A (mixed)
RNA 1: CACCCGUGCAAAAAUGCAGGGGUCUAAAACUGAGCGGAUAACCUCUCUAUGG
RNA 2: GGGAAUGGAUCCACAUCUACGAAUUCGUACCAUAGAGAGGUUAUCAGCUUACCGAGAUCGGAAGAGCACACGU
B24: target 1 del2,del8 (mixed)
RNA 1: CACCCGUGCAAAAAUGCAGGGGUCUAAAACUGAGCGGAUAACCUCUCUAUGG
RNA 2: GGGAAUGGAUCCACAUCUACGAAUUCGUACCAUAGAGAGGUUACCGCUACCGAGAUCGGAAGAGCACACGU
B25: target 1 insG 3' of 21,insA 3' of 10 (mixed)
RNA 1: CACCCGUGCAAAAAUGCAGGGGUCUAAAACUGAGCGGAUAACCUCUCUAUGG
RNA 2: GGGAAUGGAUCCACAUCUACGAAUUCGUACCGAUAGAGAGGUUAAUCCGCUCACCGAGAUCGGAAGAGCACACGU
B26: target 1 insU 3' of 12,insA 3' of 8 (mixed)
RNA 1: CACCCGUGCAAAAAUGCAGGGGUCUAAAACUGAGCGGAUAACCUCUCUAUGG
RNA 2: GGGAAUGGAUCCACAUCUACGAAUUCGUACCAUAGAGAGGUUUAUACCGCUCACCGAGAUCGGAAGAGCACACGU
B27: target 1 C7U,C22U (mixed)
RNA 1: CACCCGUGCAAAAAUGCAGGGGUCUAAAACUGAGCGGAUAACCUCUCUAUGG
RNA 2: GGGAAUGGAUCCACAUCUACGAAUUCGUAUCAUAGAGAGGUUAUUCGCUCACCGAGAUCGGAAGAGCACACGU

For this data set, the target named is T1, EsCas13d, nuclease-dead. Put plainly: crRNA (strand 1, pre-loaded); Mg2+; 40 mM Tris-HCl pH 7.5, 150 mM NaCl, 6 mM MgCl2, 1 mM DTT, 0.1% Tween-20, 0.2 mg/ml BSA; 25 C; 10 min per concentration, then washed. The following applies: tags: His6-TwinStrep-SUMO cleaved; N-terminal SNAP kept (SNAP-Surface 488); label: 3' end held by stalled T7 RNA polymerase.
Regarding B1, binding was characterised by a dissociation constant (Kd) of 34.6 ± 2.2 nM.

Take B2: the Kd was 14.5 ± 1.3 nM.

Consider B3, for which the Kd was found to be 20.5 ± 2.4 nM.

B4: binding was characterised by a dissociation constant (Kd) of 70 ± 13 nM.

Molecule B5 came in with a Kd of 90 ± 40 nM.

In the case of B6, the Kd worked out at 13.1 ± 0.8 nM.

Take B7: the Kd stood at 8.5 ± 1.3 nM.

Regarding B8, the Kd turned out to be 18.5 ± 1.7 nM.

On to B9, for which the Kd is 64 ± 8 nM.

In the case of B10, the Kd came out at 7.4 ± 0.6 nM.

Molecule B11 had a Kd of 7.5 ± 0.4 nM.

B12 registered a Kd of 5.9 ± 0.23 nM.

The molecule B13 returned a Kd of 7.21 ± 0.35 nM.

In turn, B14 yielded a Kd of 17.3 ± 1.7 nM.

Take B15: binding was put at a Kd of 14.3 ± 0.9 nM.

B16 showed a Kd of 59 ± 21 nM.

Consider B17, for which the Kd came to 28.1 ± 2.6 nM.

B18 yielded a dissociation constant (Kd) of 47 ± 8 nM.

B19 had a Kd of 19.7 ± 1 nM.

In the case of B20, the Kd is 14.1 ± 0.7 nM.

In turn, B21 displayed a Kd of 7.8 ± 0.7 nM.

B22: the Kd turned out to be 87 ± 23 nM.

Turning to B23, binding was put at a Kd of 6 ± 0.4 nM.

The molecule B24 registered an equilibrium dissociation constant (Kd) of 10 ± 0.5 nM.

For the molecule B25, the Kd came out at 84 ± 24 nM.

Take B26: the Kd was determined as 12.3 ± 0.7 nM.

Molecule B27 came in with a Kd of 14.2 ± 1.3 nM.
